In the supplement of paper PMC10567573:

B1: CHIT1 (parent)
chain: CSWKGATKQRIQDQKVPYIFRDNQ

Variants of: B1
Test: protein stability index of a GFP-peptide fusion (GPS, HEK-293T) (PSI 1-6); higher = more stable
Conditions: c terminus: a fixed tail appended
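Also: lentivirally expressed fusions sorted by FACS into six bins by GFP to DsRed ratio, PSI derived from sequencing read proportions per bin multiplied by bin number.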

Variant | protein stability index
CSWKGATKQRIQNQKVPYIFRDNQ | 1.61
CSWKGATKQRIQFQKVPYIFRDNQ | 1.8
CSWKGATKQRIQVQKVPYIFRDNQ | 2.42
CSWKGATKQRIQKQKVPYIFRDNQ | 1.84
CSWKGATKQRIQEQKVPYIFRDNQ | 2.52
CSWKGATKQRIQMQKVPYIFRDNQ | 2.91
CSWKGATKQRIQPQKVPYIFRDNQ | 1.83
CSWKGATKQRIQWQKVPYIFRDNQ | 1.25
CSWKGATKQRIQAQKVPYIFRDNQ | 2.81
CSWKGATKQRIQQQKVPYIFRDNQ | 2.31
CSWKGATKQRIQCQKVPYIFRDNQ | 2.47
CSWKGATKQRIQSQKVPYIFRDNQ | 1.73
CSWKGATKQRIQLQKVPYIFRDNQ | 1.75
CSWKGATKQRIQTQKVPYIFRDNQ | 2.56
CSWKGATKQRIQGQKVPYIFRDNQ | 2.15
CSWKGATKQRIQIQKVPYIFRDNQ | 1.5
CSWKGATKQRIQHQKVPYIFRDNQ | 1.78
CSWKGATKQRIQRQKVPYIFRDNQ | 1.69
CSWKGATKQRIQYQKVPYIFRDNQ | 1.83
CSWKGATKQRWQDQKVPYIFRDNQ | 2.07
CSWKGATKQRYQDQKVPYIFRDNQ | 2.51
CSWKGATKQRIQDQKVPIIFRDNQ | 2.23
CSWKGATKQRIQDQKVPAIFRDNQ | 2.88
CSWKGATKQRIQDQKVPTIFRDNQ | 3.02

Variant | protein stability index
CSWKGATKQRIQDQKVPPIFRDNQ | 2.58
CSWKGATKQRIQDQKVPKIFRDNQ | 3.34
CSWKGATKQRIQDQKVPMIFRDNQ | 2.41
CSWKGATKQRIQDQKVPHIFRDNQ | 2.74
CSWKGATKQRIQDQKVPVIFRDNQ | 3.46
CSWKGATKQRIQDQKVPGIFRDNQ | 4.15
CSWKGATKQRIQDQKVPWIFRDNQ | 2.19
CSWKGATKQRIQDQKVPDIFRDNQ | 3.5
CSWKGATKQRIQDQKVPRIFRDNQ | 3.08
CSWKGATKQRIQDQKVPNIFRDNQ | 3.4
CSWKGATKQRIQDQKVPFIFRDNQ | 2.12
CSWKGATKQRIQDQKVPCIFRDNQ | 2.7
CSWKGATKQRIQDQKVPYIMRDNQ | 3.53
CSWKGATKQRIQDQKVPYINRDNQ | 2.93
CSWKGATKQRIQDQKVPYIQRDNQ | 3.61
CSWKGATKQRIQDQKVPYIDRDNQ | 3.16
CSWKGATKQRIQDQKVPYIARDNQ | 3.11
CSWKGATKQRIQDQKVPYIVRDNQ | 3.09
CSWKGATKQRIQDQKVPYISRDNQ | 3.13
CSWKGATKQRIQDQKVPYIYRDNQ | 2.74
CSWKGATKQRIQDQKVPYIHRDNQ | 3.29
CSWKGATKQRIQDQKVPYIERDNQ | 3.99
CSWKGATKQRIQDQKVPYIRRDNQ | 3.08
CSWKGATKQRIQDQKVPYIPRDNQ | 3.13

Variant | protein stability index
CSWKGATKQRIQDQKVPYITRDNQ | 3.71
CSWKGATKQRIQDQKVPYIKRDNQ | 3.17
CSWKGATKQRIQDQKVPYIGRDNQ | 2.87
CSWKGATKQRIQDQKVPYIIRDNQ | 2
CSWKGATKQRIQDQKVPYILRDNQ | 3.47
CSWKGATKQRIQDQKVPYICRDNQ | 3.11
CSWKGATKQRIQDQDVPYIFRDNQ | 3.09
CSWKGATKQRIQDQVVPYIFRDNQ | 1.39
CSWKGATKQRIQDQTVPYIFRDNQ | 2.48
CSWKGATKQRIQDQRVPYIFRDNQ | 2.31
CSWKGATKQRIQDQHVPYIFRDNQ | 2.26
CSWKGATKQRIQDQMVPYIFRDNQ | 2.28
CSWKGATKQRIQDQNVPYIFRDNQ | 2.75
CSWKGATKQRIQDQGVPYIFRDNQ | 2.15
CSWKGATKQRIQDQFVPYIFRDNQ | 1.54
CSWKGATKQRIQDQCVPYIFRDNQ | 2.99
CSWKGATKQRIQDQLVPYIFRDNQ | 2.2
CSWKGATKQRIQDQQVPYIFRDNQ | 2.19
CSWKGATKQRIQDQSVPYIFRDNQ | 2.29
CSWKGATKQRIQDQIVPYIFRDNQ | 2.44
CSWKGATKQRIQDQPVPYIFRDNQ | 3.22
CSWKGATKQRIQDQYVPYIFRDNQ | 3.73
CSWKGATKQRIQDQKVPYIFSDNQ | 3.12
CSWKGATKQRIQDQKVPYIFIDNQ | 2.18

Variant | protein stability index
CSWKGATKQRIQDQKVPYIFKDNQ | 2.83
CSWKGATKQRIQDQKVPYIFYDNQ | 2.72
CSWKGATKQRIQDQKVPYIFQDNQ | 2.64
CSWKGATKQRIQDQKVPYIFVDNQ | 1.96
CSWKGATKQRIQDQKVPYIFMDNQ | 2.44
CSWKGATKQRIQDQKVPYIFDDNQ | 3.49
CSWKGATKQRIQDQKVPYIFEDNQ | 3.68
CSWKGATKQRIQDQKVPYIFTDNQ | 2.99
CSWKGATKQRIQDQKVPYIFHDNQ | 2.38
CSWKGATKQRIQDQKVPYIFNDNQ | 3.09
CSWKGATKQRIQDQKVPYIFFDNQ | 2.47
CSWKGATKQRIQDQKVPYIFGDNQ | 2.98
CSWKGATKQRIQDQKVPYIFADNQ | 3.06
CSWKGATKQRIQDQKVPYIFCDNQ | 2.11
CSWKGATKQRIQDQKVPYIFPDNQ | 3.15
CSWKGATKQRIQDQKVPYIFLDNQ | 2.9
CSWKGATKQRIQDQKVPYIFWDNQ | 1.87
CSWKGATKQRIQDQKVPYIFRCNQ | 1.66
CSWKGATKQRIQDQKVPYIFRINQ | 1.57
CSWKGATKQRIQDQKVPYIFRPNQ | 2.22
CSWKGATKQRIQDQKVPYIFRENQ | 2.44
CSWKGATKQRIQDQKVPYIFRKNQ | 2.42
CSWKGATKQRIQDQKVPYIFRNNQ | 2.42
CSWKGATKQRIQDQKVPYIFRMNQ | 2.43

Variant | protein stability index
CSWKGATKQRIQDQKVPYIFRGNQ | 3.03
CSWKGATKQRIQDQKVPYIFRANQ | 2.57
CSWKGATKQRIQDQKVPYIFRLNQ | 2.06
CSWKGATKQRIQDQKVPYIFRHNQ | 1.72
CSWKGATKQRIQDQKVPYIFRFNQ | 1.35
CSWKGATKQRIQDQKVGYIFRDNQ | 2.45
CSWKGATKQRIQDQKVRYIFRDNQ | 2.67
CSWKGATKQRIQDQKVIYIFRDNQ | 1.61
CSWKGATKQRIQDQKVTYIFRDNQ | 2.57
CSWKGATKQRIQDQKVNYIFRDNQ | 2.51
CSWKGATKQRIQDQKVLYIFRDNQ | 1.33
CSWKGATKQRIQDQKVCYIFRDNQ | 2.75
CSWKGATKQRIQDQKVQYIFRDNQ | 1.98
CSWKGATKQRIQDQKVMYIFRDNQ | 1.37
CSWKGATKQRIQDQKVKYIFRDNQ | 2.8
CSWKGATKQRIQDQKVEYIFRDNQ | 2.3
CSWKGATKQRIQDQKVHYIFRDNQ | 2.4
CSWKGATKQRIQDQKVFYIFRDNQ | 1.54
CSWKGATKQRIQDQKVYYIFRDNQ | 1.75
CSWKGATKQRIQDQKVSYIFRDNQ | 1.81
CSWKGATKQRIQDQKVWYIFRDNQ | 2.04
CSWKGATKQRIQDQKVAYIFRDNQ | 2.64
CSWKGATKQRIQDQKVDYIFRDNQ | 3.36
CSWKGATKQRIQDQKGPYIFRDNQ | 2.73

Variant | protein stability index
CSWKGATKQRIQDQKDPYIFRDNQ | 2.86
CSWKGATKQRIQDQKQPYIFRDNQ | 3.07
CSWKGATKQRIQDQKYPYIFRDNQ | 1.95
CSWKGATKQRIQDQKSPYIFRDNQ | 2.11
CSWKGATKQRIQDQKKPYIFRDNQ | 3.11
CSWKGATKQRIQDQKNPYIFRDNQ | 2.82
CSWKGATKQRIQDQKHPYIFRDNQ | 2.27
CSWKGATKQRIQDQKPPYIFRDNQ | 3.31
CSWKGATKQRIQDQKEPYIFRDNQ | 2.85
CSWKGATKQRIQDQKLPYIFRDNQ | 2.55
CSWKGATKQRIQDQKFPYIFRDNQ | 2.32
CSWKGATKQRIQDQKMPYIFRDNQ | 2.28
CSWKGATKQRIQDQKCPYIFRDNQ | 3.13
CSWKGATKQRIQDQKRPYIFRDNQ | 2.31
CSWKGATKQRIQDQKIPYIFRDNQ | 2.5
CSWKGATKQRIQDQKTPYIFRDNQ | 2.37
CSWKGATKQRIQDQKWPYIFRDNQ | 2.04
CSWKGATKQRIFDQKVPYIFRDNQ | 1.69
CSWKGATKQRIRDQKVPYIFRDNQ | 1.83
CSWKGATKQRIADQKVPYIFRDNQ | 2.67
CSWKGATKQRILDQKVPYIFRDNQ | 2.18
CSWKGATKQRISDQKVPYIFRDNQ | 2.6
CSWKGATKQRITDQKVPYIFRDNQ | 2.9
CSWKGATKQRIYDQKVPYIFRDNQ | 2.38

Variant | protein stability index
CSWKGATKQRIEDQKVPYIFRDNQ | 2.45
CSWKGATKQRIMDQKVPYIFRDNQ | 3.82
CSWKGATKQRIWDQKVPYIFRDNQ | 1.12
CSWKGATKQRIIDQKVPYIFRDNQ | 2.02
CSWKGATKQRIHDQKVPYIFRDNQ | 2.09
CSWKGATKQRIPDQKVPYIFRDNQ | 2.78
CSWKGATKQRIGDQKVPYIFRDNQ | 2.31
CSWKGATKQRIDDQKVPYIFRDNQ | 3.08
CSWKGATKQRINDQKVPYIFRDNQ | 2.28
CSWKGATKQRIQDQKVPYMFRDNQ | 3.54
CSWKGATKQRIQDQKVPYLFRDNQ | 2.3
CSWKGATKQRIQDQKVPYDFRDNQ | 3.88
CSWKGATKQRIQDQKVPYWFRDNQ | 2.06
CSWKGATKQRIQDQKVPYAFRDNQ | 3.19
CSWKGATKQRIQDQKVPYRFRDNQ | 3.28
CSWKGATKQRIQDQKVPYHFRDNQ | 3.02
CSWKGATKQRIQDQKVPYKFRDNQ | 3.67
CSWKGATKQRIQDQKVPYVFRDNQ | 2.88
CSWKGATKQRIQDQKVPYPFRDNQ | 1.87
CSWKGATKQRIQDQKVPYCFRDNQ | 2.35
CSWKGATKQRIQDQKVPYFFRDNQ | 2.08
CSWKGATKQRIQDQKVPYYFRDNQ | 1.95
CSWKGATKQRIQDQKVPYNFRDNQ | 3.17
CSWKGATKQRIQDQKVPYTFRDNQ | 2.77

Variant | protein stability index
CSWKGATKQRIQDQKVPYEFRDNQ | 3.31
CSWKGATKQRIQDYKVPYIFRDNQ | 1.92
CSWKGATKQRIQDRKVPYIFRDNQ | 2.34
CSWKGATKQRIQDSKVPYIFRDNQ | 2.37
CSWKGATKQRIQDVKVPYIFRDNQ | 1.94
CSWKGATKQRIQDMKVPYIFRDNQ | 2.21
CSWKGATKQRIQDHKVPYIFRDNQ | 3.06
CSWKGATKQRIQDPKVPYIFRDNQ | 2.98
CSWKGATKQRIQDLKVPYIFRDNQ | 2.04
CSWKGATKQRIQDAKVPYIFRDNQ | 3.46
CSWKGATKQRIQDDKVPYIFRDNQ | 2.81
CSWKGATKQRIQDCKVPYIFRDNQ | 2.6
CSWKGATKQRIQDWKVPYIFRDNQ | 1.99
CSWKGATKQRIQDFKVPYIFRDNQ | 2.47
CSWKGATKQRIQDTKVPYIFRDNQ | 2.88
CSWKGATKQRIQDNKVPYIFRDNQ | 2.91
CSWKGATKQRIQDGKVPYIFRDNQ | 2.79
CSWKGATKQRIQDIKVPYIFRDNQ | 2.35
CSWKGATKQRIQDKKVPYIFRDNQ | 1.87
CSWKGATKQRIQDEKVPYIFRDNQ | 2.79
